This passage reports interaction score results from publication PMC10397247.

One experiment concerns the target T1, 4H963-AA.
T1 chain: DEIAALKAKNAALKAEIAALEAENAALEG
Put plainly: two-hybrid library CCmax.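 Further: natural log of median RNA to DNA barcode read ratio; higher means stronger binding.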

The next experiment has as its target T2, 4H953-bN.
T2 chain: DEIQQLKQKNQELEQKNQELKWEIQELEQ
As to the kind of experiment: two-hybrid library CCNG1.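 Further: natural log of median RNA to DNA barcode read ratio; higher means stronger binding.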

In a further experiment the target is T3, 4H918-bN.
T3 chain: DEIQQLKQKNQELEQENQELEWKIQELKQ
As to the kind of experiment: two-hybrid library CCNG1.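 Further: natural log of median RNA to DNA barcode read ratio; higher means stronger binding.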

The next experiment addresses T4, 4H454-bN.
T4 chain: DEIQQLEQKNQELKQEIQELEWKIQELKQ
Put plainly: two-hybrid library CCNG1.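 Further: natural log of median RNA to DNA barcode read ratio; higher means stronger binding.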

Another experiment concerns the target T5, 4H967-bN.
T5 chain: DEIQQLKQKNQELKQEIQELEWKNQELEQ
As to the kind of experiment: two-hybrid library CCNG1.

The next experiment has as its target T6, 4H908-bN.
T6 chain: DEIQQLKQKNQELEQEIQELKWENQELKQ
As to the kind of experiment: two-hybrid library CCNG1.

The next experiment deals with T7, 4H687-bN.
T7 chain: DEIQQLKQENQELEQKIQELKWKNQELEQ
As to the kind of experiment: two-hybrid library CCNG1.

The target in another experiment is T8, 4H4001-bN.
T8 chain: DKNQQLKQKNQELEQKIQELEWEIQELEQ
As to the kind of experiment: two-hybrid library CCNG1.

In the next experiment the target is T9, 4H717-bN.
T9 chain: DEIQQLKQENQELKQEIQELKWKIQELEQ
Put plainly: two-hybrid library CCNG1.

Another experiment deals with T10, 4H568-bN.
T10 chain: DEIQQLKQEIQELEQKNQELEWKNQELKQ
As to the kind of experiment: two-hybrid library CCNG1.

Another experiment addresses T11, 4H72-bN.
T11 chain: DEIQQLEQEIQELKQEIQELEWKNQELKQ
Put plainly: two-hybrid library CCNG1.

The target of a further experiment is T12, 4H754-bN.
T12 chain: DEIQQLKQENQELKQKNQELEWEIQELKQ
As to the kind of experiment: two-hybrid library CCNG1.

For another experiment, the target named is T13, 4H3855-bN.
T13 chain: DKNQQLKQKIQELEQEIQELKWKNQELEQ
As to the kind of experiment: two-hybrid library CCNG1.

For the next experiment, the target named is T14, 4H797-bN.
T14 chain: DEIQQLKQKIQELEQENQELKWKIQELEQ
Put plainly: two-hybrid library CCNG1.

The target in the next experiment is T15, 4H883-bN.
T15 chain: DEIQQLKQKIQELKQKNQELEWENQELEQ
Put plainly: two-hybrid library CCNG1.

In another experiment the target is T16, 4H607-bN.
T16 chain: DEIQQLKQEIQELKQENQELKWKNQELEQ
Put plainly: two-hybrid library CCNG1.

The target in the next experiment is T17, 4H349-bH.
T17 chain: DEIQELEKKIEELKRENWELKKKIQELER
As to the kind of experiment: two-hybrid library CCNG1.

The target of another experiment is T18, 4H932-bH.
T18 chain: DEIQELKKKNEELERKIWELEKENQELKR
Put plainly: two-hybrid library CCNG1.

Another experiment deals with T19, 4H56-bH.
T19 chain: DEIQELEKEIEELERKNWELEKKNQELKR
As to the kind of experiment: two-hybrid library CCNG1.

In the next experiment the target is T20, 4H949-bH.
T20 chain: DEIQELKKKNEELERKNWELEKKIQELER
As to the kind of experiment: two-hybrid library CCNG1.

A further experiment concerns the target T21, 4H730-bH.
T21 chain: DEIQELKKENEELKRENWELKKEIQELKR
Put plainly: two-hybrid library CCNG1.

The next experiment addresses T22, 4H796-bH.
T22 chain: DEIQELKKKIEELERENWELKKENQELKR
Put plainly: two-hybrid library CCNG1.

A further experiment addresses T23, APC8191-AA.
T23 chain: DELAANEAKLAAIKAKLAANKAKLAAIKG
As to the kind of experiment: two-hybrid library CCmax.

The next experiment concerns the target T24, APC8910-AA.
T24 chain: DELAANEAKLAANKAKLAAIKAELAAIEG
As to the kind of experiment: two-hybrid library CCmax. Particulars: mean of both orientations.

The target of a further experiment is T25, APC4264-AA.
T25 chain: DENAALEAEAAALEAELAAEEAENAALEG
Put plainly: two-hybrid library CCmax.

A further experiment addresses T26, APC9319-AA.
T26 chain: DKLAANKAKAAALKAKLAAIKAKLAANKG
As to the kind of experiment: two-hybrid library CCmax. Particulars: mean of both orientations.

The next experiment deals with T27, APC4436-AA.
T27 chain: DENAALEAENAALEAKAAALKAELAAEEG
Put plainly: two-hybrid library CCmax. To be noted: mean of both orientations.

The next experiment addresses T28, APC6108-AA.
T28 chain: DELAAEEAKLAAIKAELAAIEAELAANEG
Put plainly: two-hybrid library CCmax. To be noted: mean of both orientations.

In the next experiment the target is T29, APC7099-AA.
T29 chain: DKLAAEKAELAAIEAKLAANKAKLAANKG
As to the kind of experiment: two-hybrid library CCmax. To be noted: mean of both orientations.

The target of another experiment is T30, APC5383-AA.
T30 chain: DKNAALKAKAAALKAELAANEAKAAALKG
Put plainly: two-hybrid library CCmax. Particulars: mean of both orientations.

For a further experiment, the target named is T31, APC9096-AA.
T31 chain: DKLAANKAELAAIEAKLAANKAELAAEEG
As to the kind of experiment: two-hybrid library CCmax. Particulars: mean of both orientations.

The molecule DEIAALKAKNAALKAEIAALEAENAALEG [4H963-AA] had an interaction score in the experiment with 4H963-AA of -2.11.

Take DKNQQLKQKIQELEQEIQELKWKNQELEQ [4H3855-bN]: the interaction score with 4H953-bN is -0.653; with 4H918-bN, -1.48; with 4H454-bN it was -0.525; in the experiment with 4H967-bN, -0.415; in the experiment with 4H908-bN, -0.268; with 4H687-bN, -1.97. For the same molecule, the interaction score with 4H4001-bN is 0.118; with 4H717-bN it was -0.464; with 4H568-bN, 0.0333; in the experiment with 4H72-bN, -0.0369; with 4H754-bN, -0.585; with 4H3855-bN, 0.124. For the same molecule, the interaction score with 4H797-bN was -0.544; in the experiment with 4H883-bN, -0.0328; with 4H607-bN it was -0.914.

As to DEIQELEKKIEELKRENWELKKKIQELER [4H349-bH], the interaction score is 0.275 in the experiment with 4H349-bH; 0.654 in the experiment with 4H932-bH; 0.452 with 4H56-bH; -0.023 in the experiment with 4H949-bH; -0.225 with 4H730-bH; 0.227 with 4H796-bH.

For the molecule DENAALEAEAAALEAELAAEEAENAALEG [APC4264-AA], the interaction score was -1.56 with APC8191-AA; -1.81 with APC8910-AA; -1.24 in the experiment with APC4264-AA; -1.52 with APC9319-AA; -2.34 with APC4436-AA; -1.5 with APC6108-AA. The figures for the interaction score with APC7099-AA, in the experiment with APC5383-AA and with APC9096-AA were -1.96, -1.3 and -1.45, respectively.
